Laboratory results taken from publication PMC11181998.

Columns and labels:
[1] = target: ACE2 receptor (UniProt Q9BYF1); assay: ELISA; competitive ELISA of ACE2 binding; AH-adsorbed DCFHP incubated overnight at 40 °C, against a reference freshly adsorbed to AH
[2] = target: ACE2 receptor (UniProt Q9BYF1); assay: ELISA; competitive ELISA of ACE2 binding; AH-adsorbed DCFHP incubated overnight at 50 °C, against a reference freshly adsorbed to AH
[3] = target: ACE2 receptor (UniProt Q9BYF1); assay: ELISA; competitive ELISA of ACE2 binding; DCFHP samples (in solution, or with AH and 0, 20 or 200 mM sodium phosphate) stored at 4 °C (3-21 days, 1 month, or up to 4 weeks) before the assay
[4] = target: ACE2 receptor (UniProt Q9BYF1); assay: ELISA; competitive ELISA of ACE2 binding; DCFHP at 50 mcg/mL in 20 mM Tris, 150 mM NaCl, 5% Sucrose, pH 7.5, in solution or adsorbed to 1.5 mg/mL Alhydrogel (AH); time zero or freshly adsorbed; read against a DCFHP reference sample; who was immobilised is told only in the Supplemental methods

Chain of UniProt Q9BYF1 (Q9BYF1 18-740 limits assumed): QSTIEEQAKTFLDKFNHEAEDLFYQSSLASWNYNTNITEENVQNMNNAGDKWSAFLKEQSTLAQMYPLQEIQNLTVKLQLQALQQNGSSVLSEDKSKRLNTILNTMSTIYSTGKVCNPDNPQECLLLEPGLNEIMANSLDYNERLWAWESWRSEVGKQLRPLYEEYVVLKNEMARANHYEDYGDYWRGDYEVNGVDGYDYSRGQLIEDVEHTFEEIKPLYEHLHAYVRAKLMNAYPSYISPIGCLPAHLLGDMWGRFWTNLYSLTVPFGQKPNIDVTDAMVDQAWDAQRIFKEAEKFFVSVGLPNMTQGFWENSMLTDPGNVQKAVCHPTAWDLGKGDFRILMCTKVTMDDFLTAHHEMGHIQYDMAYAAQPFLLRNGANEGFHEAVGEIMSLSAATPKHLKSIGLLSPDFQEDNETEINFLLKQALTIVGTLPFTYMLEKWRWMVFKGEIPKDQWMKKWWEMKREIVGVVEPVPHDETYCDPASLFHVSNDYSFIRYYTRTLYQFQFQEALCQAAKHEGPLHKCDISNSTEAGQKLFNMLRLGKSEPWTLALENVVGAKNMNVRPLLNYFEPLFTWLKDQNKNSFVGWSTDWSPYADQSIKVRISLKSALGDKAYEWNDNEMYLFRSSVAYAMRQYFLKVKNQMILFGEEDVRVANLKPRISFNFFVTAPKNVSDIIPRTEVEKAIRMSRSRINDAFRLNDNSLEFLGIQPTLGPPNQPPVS

Substance: Delta-C70-Ferritin-HexaPro (DCFHP), SARS-CoV-2 spike ferritin nanoparticle vaccine antigen, produced in Expi293 cells
- loss of ACE2 binding after overnight at 40 °C [1]: 60%
- loss of ACE2 binding after overnight at 50 °C [2]: 80%
- native antigen by ACE2 competitive ELISA after 1 month at 4 °C, AH with 0 mM phosphate [3]: 80 µg
- native antigen by ACE2 competitive ELISA after 1 month at 4 °C, AH with 200 mM phosphate [3]: 50 µg
- native antigen concentration by ACE2 competitive ELISA (target 50 mcg/mL), AH-adsorbed, stored at 4 °C for 3-21 days [3]: 75 µg/mL
- native antigen concentration by ACE2 competitive ELISA (target 50 mcg/mL), freshly adsorbed to AH, time zero [4]: 48 µg/mL
